The values that follow come from patent US20110262444A1.

This test deals with rabbit polyclonal antibodies for Peptide 2 (CRNGDD, SEQ ID NO: 2). Briefly: Western blot, inhibition of H6D antibody binding to CRNGDD-BSA by free peptide, 10 µg peptide/µl antiserum. On the technique in general: In western blotting, separated proteins are transferred to a membrane and probed.

Consider CRNGDD [CRNGDD (SEQ ID NO: 2) peptide, free], for which the percent inhibition is 81%.
